Key:
Stat3 = Stat3 (UniProt P40763); experiment: fluorescence polarization competition
[1] = target: Stat3 in IL-6 stimulated HepG2 hepatoma cells (UniProt P40763); experiment: cell-based or functional assay
Stat3 in IL-6 stimulated HepG2 hepatoma cells, sequence (P40763 2-770 limits assumed): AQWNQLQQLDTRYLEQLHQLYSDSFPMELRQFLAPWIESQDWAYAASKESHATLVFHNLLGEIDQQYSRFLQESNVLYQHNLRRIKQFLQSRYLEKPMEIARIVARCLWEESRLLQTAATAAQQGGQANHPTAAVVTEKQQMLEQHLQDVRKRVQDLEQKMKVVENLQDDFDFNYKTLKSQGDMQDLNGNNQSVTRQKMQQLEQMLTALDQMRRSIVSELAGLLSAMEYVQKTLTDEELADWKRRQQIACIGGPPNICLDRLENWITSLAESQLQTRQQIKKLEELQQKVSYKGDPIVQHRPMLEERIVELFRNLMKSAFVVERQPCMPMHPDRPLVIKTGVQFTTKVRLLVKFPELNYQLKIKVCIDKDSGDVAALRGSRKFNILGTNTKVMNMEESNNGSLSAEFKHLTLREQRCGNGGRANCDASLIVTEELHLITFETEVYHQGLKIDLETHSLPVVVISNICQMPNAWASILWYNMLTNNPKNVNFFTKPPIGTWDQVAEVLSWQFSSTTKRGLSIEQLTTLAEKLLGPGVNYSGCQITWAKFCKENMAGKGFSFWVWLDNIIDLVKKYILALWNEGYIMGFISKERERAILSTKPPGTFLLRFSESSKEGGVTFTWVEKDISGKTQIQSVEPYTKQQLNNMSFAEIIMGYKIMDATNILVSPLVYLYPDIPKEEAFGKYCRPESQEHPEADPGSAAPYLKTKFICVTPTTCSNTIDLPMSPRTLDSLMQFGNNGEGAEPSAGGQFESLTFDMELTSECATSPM

Stat3, sequence (P40763 whole entry): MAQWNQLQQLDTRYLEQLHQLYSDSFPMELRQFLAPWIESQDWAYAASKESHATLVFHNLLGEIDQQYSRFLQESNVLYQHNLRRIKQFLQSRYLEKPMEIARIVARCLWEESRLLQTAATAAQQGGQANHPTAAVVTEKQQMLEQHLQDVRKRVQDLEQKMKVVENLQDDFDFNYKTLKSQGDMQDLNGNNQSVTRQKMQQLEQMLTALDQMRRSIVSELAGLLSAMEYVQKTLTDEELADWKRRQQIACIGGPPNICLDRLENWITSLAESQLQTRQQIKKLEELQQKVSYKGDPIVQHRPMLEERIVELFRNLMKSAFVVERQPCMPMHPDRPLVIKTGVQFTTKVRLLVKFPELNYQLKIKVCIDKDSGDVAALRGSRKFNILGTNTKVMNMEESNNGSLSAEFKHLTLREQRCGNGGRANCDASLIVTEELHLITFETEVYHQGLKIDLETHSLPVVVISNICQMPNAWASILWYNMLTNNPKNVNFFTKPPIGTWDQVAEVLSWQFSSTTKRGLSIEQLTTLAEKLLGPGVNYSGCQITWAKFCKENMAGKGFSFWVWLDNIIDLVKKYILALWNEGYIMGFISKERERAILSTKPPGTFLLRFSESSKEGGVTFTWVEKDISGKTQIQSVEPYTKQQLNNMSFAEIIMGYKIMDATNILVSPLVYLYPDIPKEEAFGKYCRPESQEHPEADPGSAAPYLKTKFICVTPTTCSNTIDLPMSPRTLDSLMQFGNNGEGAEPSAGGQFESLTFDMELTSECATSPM

Substance	IC50 (Stat3) [µM]	further results
Ac-pTyr-Haic-Gln-Thr-NH2 (10, DRCIV-35B)	0.2	
Ac-pTyr-Leu-Pro-Gln-Thr-Val-mts (peptide)		IL-6 stimulated luciferase reporter under the Stat3-responsive alpha2-macroglobulin promoter, HEPG2 cells, peptide at 50 and 100 µM (% of that of IL-6) [1]: 60 to 70
Ac-pTyr-Leu-methanoPro-Gln-Thr-NH2 (14, DRCIV-39B)	0.2	
F2PmCinn-Cha-Pro-Gln-NHBn (8, PM-88D)	2	
F2PmCinn-Leu-Pro-Gln-Thr-Val-Ala-Ala-Val-Leu-Leu-Pro-Val-Leu-Leu-Ala-Ala-Pro-NH2 (peptide; the values are: luciferase activity remaining)		IL-6 stimulated luciferase reporter under the Stat3-responsive alpha2-macroglobulin promoter, HEPG2 cells, peptide at 50 µM [1]: 50%; IL-6 stimulated luciferase reporter under the Stat3-responsive alpha2-macroglobulin promoter, HEPG2 cells, peptide at 100 µM [1]: 25%
pCinn-Cha-Pro-Gln-NHBn (7, PM-66D)	0.05	
pCinn-Cha-methanoPro-Gln-NHBn (15, PM-84D)	0.11	
pCinn-Leu-Pro-Gln-Thr-NH2 (5, PM-50D)	0.11	
pInd-Cha-Pro-Gln-NHBn (9, PM-67D)	0.1	
